B1: CPEB3 Ribozyme (parent)
chain: UAACAGGGGGCCACAGCAGAAGCGUUCACGUCGCAGCCCCUGUCAGAUUCUGGUGAAUCUGCGAAUUCUGCUGUAUAUCUC

In this data set the parent is B1. Briefly: self-cleavage, relative activity (ratio to wild type); higher = more cleavage; in vitro, sequencing. In short, it runs like this:
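For each CPEB3 ribozyme variant, relative activity is its cleaved/total read fraction divided by the unmutated ribozyme's. Barcoded error-prone PCR libraries were transcribed by T7 RNA polymerase (5 hours, 37°C) and held in DNase I for 15 min before an EDTA stop, with cleavage occurring throughout. Template-switching reverse transcription and Illumina sequencing were used to read the RNAs. A 5-read minimum applied, and results are the mean of three batches.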
For UAACAGGGGGCCACAGCAGAAGCGUUCACGUCGCAGCCCCUGUCAGAUUCUGGUGCAUCUGCGAAUUCUGCAGUAUAUCUC [A56C U72A], the self-cleavage is 0.18.
As for UAACAGGGGGCCACAGCAGAAGCGUUCACGUCGCAGCCCCUCACAGAUUCUGGUGAAUCUGCGAAUUCUGCUGUAUAUCUC [G42C U43A], the self-cleavage turned out to be 0.33.
On to UAACAGGGGGCCACAGCAGAAGCGUUCACGUCGCAGCCCAUGUCAGAUUCUGGUGAAUCGGCGAAUUCUGCUGUAUAUCUC [C40A U60G], for which the self-cleavage was 0.2.
As for UAACGGGGGGCCACAGCAGAAGCGUUCACGUCGCAGCCCCUGUCAGAUUCUGGUGAAUCUGCGAAUUCUGCUGUAUAUCUC [A5G], the figure is 0.74; as for UAACAGGGGGCAACAGCAGAAGCGUUCACGUCGCAGCCCCUGUCAGAUUCUGGUGAAUCUGCGAAUUCUGCCGUAUAUCUC [C12A U72C], 1.19; as for UAACAGGGGGCCACAGCAGAAGCGUUCACGUCGCAGCCCCUGUCAGAUUCUGGAGAAUCUGCGAAUUCCGCUGUAUAUCUC [U54A U69C], 0.63.
With UAACAGGGGGCCACAGCAGAAGCGUUCGCGUCGCAGCCCCUGUCAGAUUCUGGUGAAUCUGCGAAUUCUGCUGUAUAUCUG [A28G C81G], the self-cleavage was 0.42.
As for UAACAGGGGGCCACACCAGAAGCGUUCUCGUCGCAGCCCCUGUCAGAUUCUGGUGAAUCUGCGAAUUCUGCUGUAUAUCUC [G16C A28U], the figure is 0.24.
For UAACAGGGGGCCACAGCAGAAGCGUUCACGUCGCAGCCCCUGUCAGAUUCUGGUGAAUCUGCGUAUUCUGCUGUAUACCUC [A64U U78C], the self-cleavage came to 0.31.
On to UAACAGGGGGCCACAGCGGAAGCGUUCACGUCGCAGCCCCUGUCAGAUUCUGGUGAAUCUGCGAAUGCUGCUGUAUAUCUC [A18G U67G], for which the self-cleavage turned out to be 0.28.
Turning to UAACAGGGGGCCACAGCAGAAGCGUUCACGUCGCAGCCCCUGUCAGAUUCUGGAGAAUCUGCGAAUUCUGCUGUUUAUCUC [U54A A75U], the self-cleavage worked out at 1.21.
For the variant UAACAGGGGGCCACAGCAGAAGCGUUCACGUCGCAGUCCCUGUCUGAUUCUGGUGAAUCUGCGAAUUCUGCUGUAUAUCUC [C37U A45U], the self-cleavage came to 0.4.
For the variant UAACAGGGGGCCCCAGCAGAAGCGAUCACGUCGCAGCCCCUGUCAGAUUCUGGUGAAUCUGCGAAUUCUGCUGUAUAUCUC [A13C U25A], the self-cleavage came to 0.34.
As for UAACAGGGGGCCACAGCAGAAGCGUUCAAGUCGCAGCCCCUGUCAGAUUCUGGUGAAUCUGCGAAUUCUGCUGUAUACCUC [C29A U78C], the self-cleavage was 0.3.
As for UAACAGGGUGCCACAGCAGAAGCGUUCACGUCGCAGCCCCUGUCAGAUUCUGGUGAAUCUGCGAAUUCUGCUGUAUAUCCC [G9U U80C], the figure is 0.24.
As to UAACAGGGGGCCACAGCAGAAGGGUUCACGUCGCAGCCCCUGUCAGAUUCUGGUGAAUCUGCGAAUUCUGCUGUAUAUCAC [C23G U80A], the self-cleavage stood at 0.47.
As for UAACAGGGGGCCACAGCAGAAGCGUUCACGUCGCAGCCCCUGUCAGAUUCUGGUGAAUCUGCGAAGUCUGCUGUUUAUCUC [U66G A75U], the figure is 0.67.
On to UAACAGGGGGCCACCGCAGAAGCGUUCACGUCGCAGCCCCUGUCAGAUUCUGGUGAAUCUGCGAAUUCUGCUGCAUAUCUC [A15C U74C], for which the self-cleavage was found to be 1.16.
In the case of UAACGGGGGGCCACAGCAGAAGCGUUCACGUUGCAGCCCCUGUCAGAUUCUGGUGAAUCUGCGAAUUCUGCUGUAUAUCUC [A5G C32U] it was 0.48; in that of UAUCAGGGGGCCACAGGAGAAGCGUUCACGUCGCAGCCCCUGUCAGAUUCUGGUGAAUCUGCGAAUUCUGCUGUAUAUCUC [A3U C17G], 0.53.
For UAACAGGGGGCCACAGCAGGAGCGUUCACGUCGCAGCCCCUGUCAGAUUCUGGUGAAUCUGCGAAUUCUGCUUUAUAUCUC [A20G G73U], the self-cleavage came to 1.19.
In the case of UAACAGGGGGCCACAGCAGAAGCGUUCACGUCGCAGCCCCUGUCAGUUUCUGGUGAAUAUGCGAAUUCUGCUGUAUAUCUC [A47U C59A], the self-cleavage is 0.17.
For UAACAGGGGGCCACAGCAGAAGCGUUCACGUCGCAGCCCCUGUCAGCUUCUGGUGAAUCUGCGAAUUCUGCUGUAUAUCCC [A47C U80C], the self-cleavage was found to be 0.43.
Regarding UAACAGUGGGCCACAGCGGAAGCGUUCACGUCGCAGCCCCUGUCAGAUUCUGGUGAAUCUGCGAAUUCUGCUGUAUAUCUC [G7U A18G], the self-cleavage is 0.19.
As for UAACAGGGGGCCACAGCAGAAGCGUUCACGUCGCAGCCCCUGUCAGAUUCUGGUGAAUCUGCGAGUUCUGCUGUAUAUCGC [A65G U80G], the figure is 0.66.
As to UAACAGGGGGCCACAGCAGAAGCGUUCACGUCGCAGCCCCUGUCAGAUUCUGGUGAAUUUGCGAAUUCUGCUGUGUAUCUC [C59U A75G], the self-cleavage was determined as 0.81.
Take UAACAGGGGGCCACAGCAGAAGCGUUCACGUCGCAGCCCCUGUCGGAUUCUGGUGAAUCUGCGAACUCUGCUGUAUAUCUC [A45G U66C]: the self-cleavage turned out to be 0.34.
Take UAACAUGGGGCCACAGCAGAAGCGUUCACGUCGCAGCCCCUGUCAGGUUCUGGUGAAUCUGCGAAUUCUGCUGUAUAUCUC [G6U A47G]: the self-cleavage was 0.36.
As for UAACAGGGGGCCACAGCAGAAGCGUCCACGUCGCAGCCCCUGUCAGAUUCGGGUGAAUCUGCGAAUUCUGCUGUAUAUCUC [U26C U51G], the figure is 0.46; as for UAACAGGGGGCCACAGCAGAAGCGUUCACGUCGCAGCCCCUGUCAGAUUCUGGUGUAUCUGCGAAUUCUUCUGUAUAUCUC [A56U G70U], 0.21.
In the case of UAACAGGGGGCCACAGCGGAAGCGUACACGUCGCAGCCCCUGUCAGAUUCUGGUGAAUCUGCGAAUUCUGCUGUAUAUCUC [A18G U26A], the self-cleavage was determined as 0.48.
UAUCAGGGGGCAACAGCAGAAGCGUUCACGUCGCAGCCCCUGUCAGAUUCUGGUGAAUCUGCGAAUUCUGCUGUAUAUCUC [A3U C12A]: the self-cleavage came out at 1.14.
Regarding UAACAGGGGGCCACAGCAGAAGCGUUUACGUCGCAGCCCCUGUCAGAUUCUGGUGAAUCUGCAAAUUCUGCUGUAUAUCUC [C27U G63A], the self-cleavage worked out at 0.22.
In the case of UAACAGGGGGCCACAGCAGUAGCGUUCACGUCGCAGCCCCUGUCAGAUUCUGGUGAAUCUGCGAAUUCUACUGUAUAUCUC [A20U G70A] it was 0.17.

These data come from the RNAGym collection of RNA variant scans (doi:10.1093/nar/gkz1192).
